# Test results as given in patent US20050002904A1 (published 2005).
# Where no end group is shown, it is not given here.
# T1: p120catenin (human, UniProt O60716 1-968, limits assumed)
# T1 sequence (looked up): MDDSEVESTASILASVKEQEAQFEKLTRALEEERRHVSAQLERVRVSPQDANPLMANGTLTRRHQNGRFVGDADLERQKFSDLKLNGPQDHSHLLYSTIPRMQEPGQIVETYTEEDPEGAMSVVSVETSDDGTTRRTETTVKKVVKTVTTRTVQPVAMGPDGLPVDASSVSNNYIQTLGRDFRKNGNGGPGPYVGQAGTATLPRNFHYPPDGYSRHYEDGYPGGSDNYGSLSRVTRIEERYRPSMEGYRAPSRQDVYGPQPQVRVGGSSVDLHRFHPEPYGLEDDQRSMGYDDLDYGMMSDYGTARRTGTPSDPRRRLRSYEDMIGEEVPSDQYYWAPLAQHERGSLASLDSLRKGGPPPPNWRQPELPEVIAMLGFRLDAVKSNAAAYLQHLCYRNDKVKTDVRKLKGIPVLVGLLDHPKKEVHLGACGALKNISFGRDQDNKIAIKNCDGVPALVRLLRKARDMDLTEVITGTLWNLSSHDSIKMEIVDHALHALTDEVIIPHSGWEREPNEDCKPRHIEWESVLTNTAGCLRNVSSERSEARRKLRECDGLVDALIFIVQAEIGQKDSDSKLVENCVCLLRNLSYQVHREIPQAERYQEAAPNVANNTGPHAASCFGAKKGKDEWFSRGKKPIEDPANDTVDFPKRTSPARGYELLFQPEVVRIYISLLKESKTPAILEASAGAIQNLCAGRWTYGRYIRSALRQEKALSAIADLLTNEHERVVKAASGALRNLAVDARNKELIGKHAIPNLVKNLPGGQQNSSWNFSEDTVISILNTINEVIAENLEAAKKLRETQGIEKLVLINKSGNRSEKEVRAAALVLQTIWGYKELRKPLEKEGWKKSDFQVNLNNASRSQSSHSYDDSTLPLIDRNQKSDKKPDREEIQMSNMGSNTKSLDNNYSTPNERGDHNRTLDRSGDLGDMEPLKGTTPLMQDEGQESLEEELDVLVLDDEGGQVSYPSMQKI
# T2: VE-cadherin (human, UniProt P33151 48-784)
# T2 sequence (looked up): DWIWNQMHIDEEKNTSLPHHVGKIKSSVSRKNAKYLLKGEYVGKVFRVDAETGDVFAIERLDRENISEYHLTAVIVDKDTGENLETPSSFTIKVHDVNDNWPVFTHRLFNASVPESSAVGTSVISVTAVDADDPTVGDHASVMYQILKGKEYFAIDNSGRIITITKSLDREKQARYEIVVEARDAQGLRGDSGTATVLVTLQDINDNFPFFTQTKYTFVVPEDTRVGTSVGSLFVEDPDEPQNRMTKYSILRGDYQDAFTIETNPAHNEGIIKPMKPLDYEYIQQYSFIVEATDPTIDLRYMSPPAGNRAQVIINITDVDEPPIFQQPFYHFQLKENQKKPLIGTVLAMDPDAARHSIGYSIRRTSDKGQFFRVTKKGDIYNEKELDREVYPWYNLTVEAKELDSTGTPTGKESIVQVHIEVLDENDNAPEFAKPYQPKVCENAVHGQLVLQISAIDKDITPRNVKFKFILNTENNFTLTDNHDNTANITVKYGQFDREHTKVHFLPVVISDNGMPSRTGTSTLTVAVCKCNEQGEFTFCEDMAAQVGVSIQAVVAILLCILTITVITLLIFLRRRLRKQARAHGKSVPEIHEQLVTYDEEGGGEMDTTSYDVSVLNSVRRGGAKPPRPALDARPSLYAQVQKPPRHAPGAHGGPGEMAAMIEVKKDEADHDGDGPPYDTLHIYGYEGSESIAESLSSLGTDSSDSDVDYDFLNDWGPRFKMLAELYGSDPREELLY
# T3: β-catenin (human, UniProt P35222 2-781)
# T3 sequence (looked up): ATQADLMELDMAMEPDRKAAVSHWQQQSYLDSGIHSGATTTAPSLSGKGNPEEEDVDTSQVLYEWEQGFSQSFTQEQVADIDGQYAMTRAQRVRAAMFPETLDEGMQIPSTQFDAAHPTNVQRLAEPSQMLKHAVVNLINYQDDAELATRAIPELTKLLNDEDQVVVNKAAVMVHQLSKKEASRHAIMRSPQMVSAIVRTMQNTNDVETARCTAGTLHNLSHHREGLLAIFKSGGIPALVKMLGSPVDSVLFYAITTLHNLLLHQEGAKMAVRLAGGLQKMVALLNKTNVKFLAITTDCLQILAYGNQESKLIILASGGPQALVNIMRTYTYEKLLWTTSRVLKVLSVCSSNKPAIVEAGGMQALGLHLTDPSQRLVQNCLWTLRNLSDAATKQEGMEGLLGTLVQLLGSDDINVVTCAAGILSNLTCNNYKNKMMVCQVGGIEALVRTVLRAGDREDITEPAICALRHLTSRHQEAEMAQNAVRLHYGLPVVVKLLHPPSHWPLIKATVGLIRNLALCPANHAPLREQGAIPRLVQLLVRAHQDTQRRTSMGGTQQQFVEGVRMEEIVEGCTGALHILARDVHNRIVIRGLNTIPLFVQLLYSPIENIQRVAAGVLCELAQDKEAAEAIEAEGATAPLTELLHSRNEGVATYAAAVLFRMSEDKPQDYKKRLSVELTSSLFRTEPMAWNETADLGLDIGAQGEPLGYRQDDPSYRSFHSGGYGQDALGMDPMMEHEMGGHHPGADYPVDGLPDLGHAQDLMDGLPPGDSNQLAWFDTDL
# T4: γ-catenin (plakoglobin) (human, UniProt P14923 1-745)
# T4 sequence (looked up): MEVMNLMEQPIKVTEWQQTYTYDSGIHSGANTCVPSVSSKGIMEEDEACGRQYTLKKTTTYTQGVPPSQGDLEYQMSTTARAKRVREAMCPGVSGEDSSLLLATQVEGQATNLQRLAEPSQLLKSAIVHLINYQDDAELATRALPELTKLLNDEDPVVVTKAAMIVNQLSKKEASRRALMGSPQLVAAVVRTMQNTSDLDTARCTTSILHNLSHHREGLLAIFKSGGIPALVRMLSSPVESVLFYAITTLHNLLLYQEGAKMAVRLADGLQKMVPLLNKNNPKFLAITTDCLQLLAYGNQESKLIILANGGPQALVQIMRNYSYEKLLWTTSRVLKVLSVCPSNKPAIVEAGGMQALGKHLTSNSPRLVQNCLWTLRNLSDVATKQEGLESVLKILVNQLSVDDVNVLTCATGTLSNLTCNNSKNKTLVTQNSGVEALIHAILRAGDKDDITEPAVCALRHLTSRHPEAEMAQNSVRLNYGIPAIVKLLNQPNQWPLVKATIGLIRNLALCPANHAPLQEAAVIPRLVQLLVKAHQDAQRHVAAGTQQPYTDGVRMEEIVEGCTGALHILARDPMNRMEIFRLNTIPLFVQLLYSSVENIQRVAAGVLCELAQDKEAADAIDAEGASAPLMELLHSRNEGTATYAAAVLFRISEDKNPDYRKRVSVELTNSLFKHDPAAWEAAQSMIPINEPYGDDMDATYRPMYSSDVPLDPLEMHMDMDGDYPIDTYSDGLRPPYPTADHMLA
# B1: wild-type VCIP/PAP2b, HA-tagged, expressed from pLNCX2-VCIP-RGD (other)
# chain: YPYDVPDYAYPYDVPDYAYPYDVPDYAMQNYKYDKAIVPESKNGGSPALNNNPRRSGSKRVLLICLDLFCLFMAGLPFLIIETSTIKPYHRGFYCNDESIKYPLKTGETINDAVLCAVGIVIAILAIITGEFYRIYYLKKSRSTIQNPYVAALYKQVGCFLFGCAISQSFTDIAKVSIGRLRPHFLSVCNPDFSQINCSEGYIQNYRCRGDDSKVQEARKSFFSGHASFSMYTMLYLVLYLQARFTWRGARLLRPLLQFTLIMMAFYTGLSRVSDHKHHPSDVLAGFAQGALVACCIVFFVSDLFKTKTTLSLPAPAIRKEILSPVDIIDRNNHHNMM
# notes: Expressed in HEK293, SW480 and HUVEC cells; also called VCIP-RGD (WT); pLNCX2-PAP2b-RGD
# B2: mutant VCIP/PAP2b-RGE, HA-tagged, expressed from pLNCX2-VCIP-RGE (other)
# chain: YPYDVPDYAYPYDVPDYAYPYDVPDYAMQNYKYDKAIVPESKNGGSPALNNNPRRSGSKRVLLICLDLFCLFMAGLPFLIIETSTIKPYHRGFYCNDESIKYPLKTGETINDAVLCAVGIVIAILAIITGEFYRIYYLKKSRSTIQNPYVAALYKQVGCFLFGCAISQSFTDIAKVSIGRLRPHFLSVCNPDFSQINCSEGYIQNYRCRGEDSKVQEARKSFFSGHASFSMYTMLYLVLYLQARFTWRGARLLRPLLQFTLIMMAFYTGLSRVSDHKHHPSDVLAGFAQGALVACCIVFFVSDLFKTKTTLSLPAPAIRKEILSPVDIIDRNNHHNMM
# B3: GST-VCIP-RGD fusion protein (wild-type glutathione S-transferase-VCIP-RGD) (other)
# chain: DIAKVSIGRLRPHFLSVCNPDFSQINCSEGYIQNYRCRGDDSKVQEARKS
# modifications: cysteine pairing not given here; also: recombinant GST fusion
# notes: also called GST-RGD-VCIP; recombinant VCIP-RGD; not shown: glutathione S-transferase (GST) encoded by the pGstag vector
# B4: PAP2b/VCIP retroviral construct E, lacking the entire C-terminal cytoplasmic segment (other, not shown: small tags and cut ends)
# chain: MQNYKYDKAIVPESKNGGSPALNNNPRRSGSKRVLLICLDLFCLFMAGLPFLIIETSTIKPYHRGFYCNDESIKYPLKTGETINDAVLCAVGIVIAILAIITGEFYRIYYLKKSRSTIQNPYVAALYKQVGCFLFGCAISQSFTDIAKVSIGRLRPHFLSVCNPDFSQINCSEGYIQNYRCRGDDSKVQEARKSFFSGHASFSMYTMLYLVLYLQARFTWRGARLLRPLLQFTLIMMAFYTGLSRVSDHKHHPSDVLAGFAQGALVACCIVFFVSDLFKTKTT
# notes: residues 1-283 follow from that; Expressed in endothelial cells, lysate used; also called Δ-C-Cyto-284-311; VCIP-Δ-C-cyto
# Experiments:
# p120catenin [1] = biological target: T1, p120catenin; test: cell-based or functional assay
# [2] = biological target: VEGF receptor-2 (VEGFR-2) (human, UniProt P35968 20-1356); test: co-immunoprecipitation from HUVECs, western blot of identical blots
# Chain of VEGF receptor-2 (VEGFR-2) (P35968 20-1356 limits assumed): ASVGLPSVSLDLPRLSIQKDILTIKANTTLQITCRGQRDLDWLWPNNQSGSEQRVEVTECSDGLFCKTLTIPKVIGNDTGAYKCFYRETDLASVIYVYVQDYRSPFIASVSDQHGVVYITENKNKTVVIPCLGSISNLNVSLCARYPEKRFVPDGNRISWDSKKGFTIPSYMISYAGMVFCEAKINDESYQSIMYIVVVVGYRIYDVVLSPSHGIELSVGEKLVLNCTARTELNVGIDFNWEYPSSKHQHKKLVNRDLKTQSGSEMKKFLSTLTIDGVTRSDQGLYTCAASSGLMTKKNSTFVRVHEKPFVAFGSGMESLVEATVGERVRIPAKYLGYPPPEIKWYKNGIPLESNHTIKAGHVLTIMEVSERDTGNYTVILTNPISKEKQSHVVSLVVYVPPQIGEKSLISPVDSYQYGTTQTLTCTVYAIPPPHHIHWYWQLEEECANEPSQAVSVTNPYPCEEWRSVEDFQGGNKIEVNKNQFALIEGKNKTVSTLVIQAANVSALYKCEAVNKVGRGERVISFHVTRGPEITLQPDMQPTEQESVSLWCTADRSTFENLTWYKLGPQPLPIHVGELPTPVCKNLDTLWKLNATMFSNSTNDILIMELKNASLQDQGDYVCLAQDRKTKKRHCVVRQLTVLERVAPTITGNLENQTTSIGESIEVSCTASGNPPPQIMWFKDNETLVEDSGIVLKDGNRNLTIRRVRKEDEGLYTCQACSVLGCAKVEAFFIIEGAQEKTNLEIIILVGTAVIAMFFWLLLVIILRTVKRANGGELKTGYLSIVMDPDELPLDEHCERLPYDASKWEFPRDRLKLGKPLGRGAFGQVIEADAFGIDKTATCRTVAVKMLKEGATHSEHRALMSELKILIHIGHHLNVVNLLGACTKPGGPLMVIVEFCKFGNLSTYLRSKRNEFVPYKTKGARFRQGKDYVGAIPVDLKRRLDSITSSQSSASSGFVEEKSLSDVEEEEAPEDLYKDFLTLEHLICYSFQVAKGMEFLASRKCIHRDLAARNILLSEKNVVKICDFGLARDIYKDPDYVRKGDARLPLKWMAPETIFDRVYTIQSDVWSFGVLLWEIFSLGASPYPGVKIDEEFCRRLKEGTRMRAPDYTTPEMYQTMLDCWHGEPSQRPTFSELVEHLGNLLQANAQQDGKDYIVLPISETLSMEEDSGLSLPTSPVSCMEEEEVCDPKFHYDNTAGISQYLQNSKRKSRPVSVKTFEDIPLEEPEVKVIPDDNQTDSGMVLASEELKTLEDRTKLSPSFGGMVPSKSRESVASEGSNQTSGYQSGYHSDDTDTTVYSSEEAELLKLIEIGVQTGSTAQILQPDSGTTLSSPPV
# Tie-2 = Tie-2 (human, UniProt Q02763 23-1124); test: as above
# CD36 = CD36 (human, UniProt P16671 2-472); test: as above
# PECAM-1 = PECAM-1 (human, UniProt P16284 28-738); test: as above
# VE-cadherin = biological target: T2, VE-cadherin; test: co-immunoprecipitation from HUVECs infected with wild-type PAP2b, western blot
# β-catenin = biological target: T3, β-catenin; test: as above
# γ-catenin (plakoglobin) = biological target: T4, γ-catenin (plakoglobin); test: as above
# soluble α2β1 integrin = soluble α2β1 integrin (UniProt P17301 30-1132; P05556 21-728); test: solid-phase ligand binding ELISA, integrin immobilized
# Chain of soluble α2β1 integrin (P17301 30-1132, chain 1 of 2): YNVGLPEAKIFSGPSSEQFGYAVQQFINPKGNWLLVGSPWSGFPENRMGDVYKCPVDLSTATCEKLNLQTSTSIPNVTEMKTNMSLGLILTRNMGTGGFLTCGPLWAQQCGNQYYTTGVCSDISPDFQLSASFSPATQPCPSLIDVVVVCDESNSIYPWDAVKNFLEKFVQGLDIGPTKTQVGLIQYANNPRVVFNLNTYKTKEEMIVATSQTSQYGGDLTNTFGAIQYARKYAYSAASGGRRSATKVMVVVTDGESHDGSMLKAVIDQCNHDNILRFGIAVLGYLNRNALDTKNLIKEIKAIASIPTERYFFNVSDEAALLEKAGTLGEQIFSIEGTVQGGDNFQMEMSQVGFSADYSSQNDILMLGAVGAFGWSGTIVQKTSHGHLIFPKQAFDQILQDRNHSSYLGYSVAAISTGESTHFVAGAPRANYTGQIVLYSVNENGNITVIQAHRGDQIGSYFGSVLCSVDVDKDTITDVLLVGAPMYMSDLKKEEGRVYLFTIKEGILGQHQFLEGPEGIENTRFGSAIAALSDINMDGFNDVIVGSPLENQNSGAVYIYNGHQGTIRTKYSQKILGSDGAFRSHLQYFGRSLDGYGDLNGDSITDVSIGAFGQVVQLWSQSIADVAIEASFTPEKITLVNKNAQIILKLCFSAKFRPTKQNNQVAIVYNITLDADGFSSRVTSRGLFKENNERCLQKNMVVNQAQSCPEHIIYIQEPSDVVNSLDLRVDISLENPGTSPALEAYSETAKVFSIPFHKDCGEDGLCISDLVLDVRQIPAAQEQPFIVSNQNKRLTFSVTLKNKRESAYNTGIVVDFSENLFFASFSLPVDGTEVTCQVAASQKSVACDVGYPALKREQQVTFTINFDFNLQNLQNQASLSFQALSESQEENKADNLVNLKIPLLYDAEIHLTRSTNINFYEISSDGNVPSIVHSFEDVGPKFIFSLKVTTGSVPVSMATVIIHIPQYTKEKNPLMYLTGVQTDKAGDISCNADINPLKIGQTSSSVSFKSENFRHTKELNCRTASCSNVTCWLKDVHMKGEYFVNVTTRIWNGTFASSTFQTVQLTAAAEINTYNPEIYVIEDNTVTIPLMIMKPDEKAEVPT
# Chain of soluble α2β1 integrin (P05556 21-728, chain 2 of 2): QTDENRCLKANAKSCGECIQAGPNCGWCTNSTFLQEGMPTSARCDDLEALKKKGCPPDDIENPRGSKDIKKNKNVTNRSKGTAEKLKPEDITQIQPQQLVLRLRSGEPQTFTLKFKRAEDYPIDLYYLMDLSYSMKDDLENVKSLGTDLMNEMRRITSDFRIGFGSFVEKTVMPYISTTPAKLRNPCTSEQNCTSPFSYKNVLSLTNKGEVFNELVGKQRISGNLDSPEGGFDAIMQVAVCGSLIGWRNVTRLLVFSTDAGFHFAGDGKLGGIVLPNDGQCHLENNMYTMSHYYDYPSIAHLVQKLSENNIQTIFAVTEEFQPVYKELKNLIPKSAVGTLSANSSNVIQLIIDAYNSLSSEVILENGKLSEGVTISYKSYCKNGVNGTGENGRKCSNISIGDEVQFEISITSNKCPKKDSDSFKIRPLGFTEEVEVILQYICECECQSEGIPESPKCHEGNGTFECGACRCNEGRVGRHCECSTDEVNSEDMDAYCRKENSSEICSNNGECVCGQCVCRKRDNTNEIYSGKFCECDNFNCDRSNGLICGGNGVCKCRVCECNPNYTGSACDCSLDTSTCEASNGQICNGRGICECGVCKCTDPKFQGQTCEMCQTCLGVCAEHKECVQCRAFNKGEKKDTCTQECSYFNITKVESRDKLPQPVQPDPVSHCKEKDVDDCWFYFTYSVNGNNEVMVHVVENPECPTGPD
# Description: (§1) Briefly, soluble α2β1, α5β1, αvβv3 and αvβ5 integrins (1 μg/ml in a solution containing 20 mM Tris pH 7.4, 150 mM NaCl, 1 mM CaCl₂, 1 mM MgCl₂ and 1 mM MnCl₂) were immobilized onto 96-well microtiter plates at 4° C. Wells were washed and blocked with 0.5% BSA. […] Plates were then washed again and the ABTS substrate (Bio-Rad) was added. All washing steps were carried out using PBS. Absorbances were read at 405 nm, and non-specific binding values were adjusted against BSA.
# soluble αvβ5 integrin = soluble αvβ5 integrin (UniProt P06756 31-992; P18084 24-719); test: as above
# Description: as §1
# [3] = biological target: T5, α5β1 integrin of endothelial cells (human, UniProt P08648 42-1049; P05556 21-798); test: GST pull-down from 35S-labeled endothelial cell lysate, re-immunoprecipitation with P1D6
# T5 construct: whole, on cells; On cells in the adhesion assays
# Excerpt: (§2) Lysates were pre-adsorbed twice with GST-Sepharose beads to remove proteins that interact with GST-Sepharose beads non-specifically. […] The beads were then extensively washed. […] The samples were equally divided into three tubes and diluted with cold immunoprecipitation dilution buffer to adjust the concentration of SDS to <0.1%. The samples were then immediately subjected to immunoprecipitation with indicated antibodies (FIG. 10H).
# [4] = biological target: T6, αvβ3 integrin of endothelial cells (human, UniProt P06756 31-1048; P05106 27-788); test: GST pull-down from 35S-labeled endothelial cell lysate, re-immunoprecipitation with LM609
# T6 construct: whole, on cells; On cells in the adhesion assays
# T6 sequence (P06756 31-1048, chain 1 of 2): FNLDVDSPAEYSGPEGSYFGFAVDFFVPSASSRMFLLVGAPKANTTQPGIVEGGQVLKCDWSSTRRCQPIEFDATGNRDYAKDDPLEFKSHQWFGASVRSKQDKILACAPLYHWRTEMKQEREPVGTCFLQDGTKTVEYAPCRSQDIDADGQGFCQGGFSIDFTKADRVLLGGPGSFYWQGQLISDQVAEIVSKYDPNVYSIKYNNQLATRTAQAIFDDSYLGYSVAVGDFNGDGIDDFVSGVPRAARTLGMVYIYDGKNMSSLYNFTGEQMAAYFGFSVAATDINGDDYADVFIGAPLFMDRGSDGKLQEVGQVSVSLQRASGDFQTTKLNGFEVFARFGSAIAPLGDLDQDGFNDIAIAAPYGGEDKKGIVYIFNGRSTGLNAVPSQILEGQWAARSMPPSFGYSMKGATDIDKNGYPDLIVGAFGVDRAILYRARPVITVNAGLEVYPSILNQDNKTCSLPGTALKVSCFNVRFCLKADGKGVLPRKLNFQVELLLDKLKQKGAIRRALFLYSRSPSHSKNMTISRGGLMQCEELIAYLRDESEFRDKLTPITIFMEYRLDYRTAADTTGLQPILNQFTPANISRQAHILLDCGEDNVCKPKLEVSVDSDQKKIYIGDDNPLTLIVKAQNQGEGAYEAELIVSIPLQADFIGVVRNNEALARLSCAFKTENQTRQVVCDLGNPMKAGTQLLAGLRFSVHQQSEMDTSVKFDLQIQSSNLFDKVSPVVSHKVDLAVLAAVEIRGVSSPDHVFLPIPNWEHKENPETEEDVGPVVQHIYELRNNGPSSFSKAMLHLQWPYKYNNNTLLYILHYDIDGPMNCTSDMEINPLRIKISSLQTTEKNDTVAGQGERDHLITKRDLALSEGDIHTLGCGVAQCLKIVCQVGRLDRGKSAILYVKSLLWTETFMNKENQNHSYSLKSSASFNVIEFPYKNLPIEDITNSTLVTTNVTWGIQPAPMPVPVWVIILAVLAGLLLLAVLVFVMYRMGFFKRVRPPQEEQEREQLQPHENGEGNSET
# T6 sequence (P05106 27-788, chain 2 of 2): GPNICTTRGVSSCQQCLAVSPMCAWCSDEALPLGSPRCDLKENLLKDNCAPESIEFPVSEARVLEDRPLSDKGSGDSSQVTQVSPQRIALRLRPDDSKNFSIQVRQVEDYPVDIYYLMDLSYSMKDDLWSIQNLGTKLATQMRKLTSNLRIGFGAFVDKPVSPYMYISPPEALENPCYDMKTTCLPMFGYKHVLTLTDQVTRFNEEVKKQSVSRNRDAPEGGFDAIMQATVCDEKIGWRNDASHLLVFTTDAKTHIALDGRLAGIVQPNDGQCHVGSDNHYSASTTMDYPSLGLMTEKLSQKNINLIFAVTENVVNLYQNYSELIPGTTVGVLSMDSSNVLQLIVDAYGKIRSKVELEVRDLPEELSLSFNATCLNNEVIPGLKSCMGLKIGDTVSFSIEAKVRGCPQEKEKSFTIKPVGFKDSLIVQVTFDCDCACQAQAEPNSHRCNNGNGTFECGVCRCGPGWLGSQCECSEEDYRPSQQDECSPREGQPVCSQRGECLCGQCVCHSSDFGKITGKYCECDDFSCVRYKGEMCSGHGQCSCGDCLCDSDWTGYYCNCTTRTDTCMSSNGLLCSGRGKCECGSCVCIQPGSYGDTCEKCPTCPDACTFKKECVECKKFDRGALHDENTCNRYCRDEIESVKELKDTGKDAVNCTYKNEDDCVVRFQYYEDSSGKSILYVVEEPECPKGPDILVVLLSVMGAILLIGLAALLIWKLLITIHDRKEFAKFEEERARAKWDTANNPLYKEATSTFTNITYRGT
# Excerpt: as §2
# p120catenin [5] = biological target: T1, p120catenin; test: anti-HA co-immunoprecipitation from infected endothelial cells, anti-p120 catenin blot
# Description: Endothelial cells were solubilized in RIPA buffer, and immunoprecipitated using indicated antibodies (5 μg/1.5 mg protein). […] All blots shown are representative of those obtained in at least three separate experiments.
# Cell extracts were immunoprecipitated with anti-HA (lanes 1, 2, 4, 5 and 6) or anti-p120 catenin (lane 3) monoclonal antibodies (mAb) and subjected to western immunoblot analysis with anti-p120 catenin (FIG. 17A). To determine the level of expression, the bottom portion of the blot was analyzed by immunoblotting with anti-HA mAbs (FIG. 17B).
binder,measurement,setting,value
B1,"LEF-1 luciferase (TOPFLASH) activity in SW480 cells, fold reduction, construct B",p120catenin [1],~3.2 fold
same,binding result,[2],no binding
same,binding result,Tie-2,no binding
same,binding result,CD36,no binding
same,binding result,PECAM-1,no binding
same,binding result,VE-cadherin,no binding
same,binding result,β-catenin,no binding
same,binding result,γ-catenin (plakoglobin),no binding
B2,"LEF-1 luciferase (TOPFLASH) activity in SW480 cells, fold reduction, construct C",p120catenin [1],~4.2 fold
B3,binding result,soluble α2β1 integrin,no binding (tested: 50-350 ng per well)
same,binding result,soluble αvβ5 integrin,no binding (tested: 50-350 ng per well)
same,binding result,[3],binds
same,binding result,[4],binds
B4,binding result,p120catenin [5],no binding
